# T1: rHuman Erythropoietin R/Fc Chimera, CF (R&D Systems Cat#963-ER) (human, UniProt P19235 25-250)
# T1 construct: Bought recombinant Fc chimera; also called EPO R; EPO R/Fc; Fc part of the bought chimera not given
# T1 sequence (looked up): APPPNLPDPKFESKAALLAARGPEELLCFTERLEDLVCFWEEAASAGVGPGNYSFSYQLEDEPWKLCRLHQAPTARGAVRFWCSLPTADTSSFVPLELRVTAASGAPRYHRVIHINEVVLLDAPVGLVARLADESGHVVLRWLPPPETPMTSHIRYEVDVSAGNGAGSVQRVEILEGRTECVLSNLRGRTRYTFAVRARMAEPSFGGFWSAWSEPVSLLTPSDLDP
# Columns and labels:
# [1] = target: T2, Recombinant Human DLL4 (R&D Systems Cat#1506-D4/CF) (human, UniProt Q9NR61 27-524); assay: ECL Multispot (MSD) assay, antigen spotted on plate, 10 nM Fab; blank spot 378
# T2 construct: Bought recombinant protein; also called delta-like protein 4; rHuman DLL4
# [2] = target: T3, rHuman ErbB2/Fc Chimera, CF (R&D Systems Cat#1129-ER) (human, UniProt P04626 23-652); assay: as above
# T3 construct: Bought recombinant Fc chimera; also called human epidermal growth factor 2 receptor; Fc part of the bought chimera not given
# [3] = target: T4, rHuman EGF R/Fc Chimera, CF (R&D Systems Cat#344-ER) (human, UniProt P00533 25-645); assay: as above
# T4 construct: Bought recombinant Fc chimera; also called epidermal growth factor receptor; Fc part of the bought chimera not given
# [4] = target: T5, rHuman HGF R/c-MET/Fc Chimera, CF (R&D Systems Cat#358-MT/CF) (human, UniProt P08581 25-932); assay: as above
# T5 construct: Bought recombinant Fc chimera; also called HGF R/Fc; hepatocyte growth factor receptor; Fc part of the bought chimera not given
# [5] = target: T6, rHuman IGF-1 sR, CF (R&D Systems Cat#391-GR) (human, UniProt P08069 31-932); assay: as above
# T6 construct: Bought soluble receptor; also called insulin-like growth factor-1 soluble receptor
# [6] = target: T1, rHuman Erythropoietin R/Fc Chimera, CF …; assay: as above
# [7] = target: T7, rHuman CD44/Fc Chimera, CF (R&D Systems Cat#3660-CD) (human, UniProt P16070 21-220); assay: as above
# T7 construct: Bought recombinant Fc chimera; Fc part of the bought chimera not given
# [8] = target: T8, rHuman Notch-1/Fc Chimera, CF (R&D Systems Cat#3647-TK) (human, UniProt P46531 19-526); assay: as above
# T8 construct: Bought recombinant Fc chimera; Fc part of the bought chimera not given
# [9] = target: T9, rHuman P-Cadherin/Fc Chimera, CF (R&D Systems Cat#861-PC) (human, UniProt P22223 108-654); assay: as above
# T9 construct: Bought recombinant Fc chimera; Fc part of the bought chimera not given
# [10] = target: T2, Recombinant Human DLL4 (R&D Systems …); assay: ECL Multispot (MSD) assay, antigen spotted on plate, 10 nM Fab; blank spot 302
# [11] = target: T3, rHuman ErbB2/Fc Chimera, CF (R&D …); assay: as above
# [12] = target: T4, rHuman EGF R/Fc Chimera, CF (R&D …); assay: as above
# [13] = target: T5, rHuman HGF R/c-MET/Fc Chimera, CF (R&D …); assay: as above
# [14] = target: T6, rHuman IGF-1 sR, CF (R&D Systems …); assay: as above
# [15] = target: T1, rHuman Erythropoietin R/Fc Chimera, CF …; assay: as above
# [16] = target: T7, rHuman CD44/Fc Chimera, CF (R&D Systems …); assay: as above
# [17] = target: T8, rHuman Notch-1/Fc Chimera, CF (R&D …); assay: as above
# [18] = target: T9, rHuman P-Cadherin/Fc Chimera, CF (R&D …); assay: as above
# [19] = target: T2, Recombinant Human DLL4 (R&D Systems …); assay: ECL Multispot (MSD) assay, antigen spotted on plate, 10 nM Fab; blank spot 296
# [20] = target: T3, rHuman ErbB2/Fc Chimera, CF (R&D …); assay: as above
# [21] = target: T4, rHuman EGF R/Fc Chimera, CF (R&D …); assay: as above
# [22] = target: T5, rHuman HGF R/c-MET/Fc Chimera, CF (R&D …); assay: as above
# [23] = target: T6, rHuman IGF-1 sR, CF (R&D Systems …); assay: as above
# [24] = target: T1, rHuman Erythropoietin R/Fc Chimera, CF …; assay: as above
# [25] = target: T7, rHuman CD44/Fc Chimera, CF (R&D Systems …); assay: as above
# [26] = target: T8, rHuman Notch-1/Fc Chimera, CF (R&D …); assay: as above
# [27] = target: T9, rHuman P-Cadherin/Fc Chimera, CF (R&D …); assay: as above
# [28] = target: T2, Recombinant Human DLL4 (R&D Systems …); assay: ECL Multispot (MSD) assay, antigen spotted on plate, 10 nM Fab; blank spot 271
# [29] = target: T3, rHuman ErbB2/Fc Chimera, CF (R&D …); assay: as above
# [30] = target: T4, rHuman EGF R/Fc Chimera, CF (R&D …); assay: as above
# [31] = target: T5, rHuman HGF R/c-MET/Fc Chimera, CF (R&D …); assay: as above
# [32] = target: T6, rHuman IGF-1 sR, CF (R&D Systems …); assay: as above
# [33] = target: T1, rHuman Erythropoietin R/Fc Chimera, CF …; assay: as above
# [34] = target: T7, rHuman CD44/Fc Chimera, CF (R&D Systems …); assay: as above
# [35] = target: T8, rHuman Notch-1/Fc Chimera, CF (R&D …); assay: as above
# [36] = target: T9, rHuman P-Cadherin/Fc Chimera, CF (R&D …); assay: as above
# T5 sequence (P08581 25-932, change not shown): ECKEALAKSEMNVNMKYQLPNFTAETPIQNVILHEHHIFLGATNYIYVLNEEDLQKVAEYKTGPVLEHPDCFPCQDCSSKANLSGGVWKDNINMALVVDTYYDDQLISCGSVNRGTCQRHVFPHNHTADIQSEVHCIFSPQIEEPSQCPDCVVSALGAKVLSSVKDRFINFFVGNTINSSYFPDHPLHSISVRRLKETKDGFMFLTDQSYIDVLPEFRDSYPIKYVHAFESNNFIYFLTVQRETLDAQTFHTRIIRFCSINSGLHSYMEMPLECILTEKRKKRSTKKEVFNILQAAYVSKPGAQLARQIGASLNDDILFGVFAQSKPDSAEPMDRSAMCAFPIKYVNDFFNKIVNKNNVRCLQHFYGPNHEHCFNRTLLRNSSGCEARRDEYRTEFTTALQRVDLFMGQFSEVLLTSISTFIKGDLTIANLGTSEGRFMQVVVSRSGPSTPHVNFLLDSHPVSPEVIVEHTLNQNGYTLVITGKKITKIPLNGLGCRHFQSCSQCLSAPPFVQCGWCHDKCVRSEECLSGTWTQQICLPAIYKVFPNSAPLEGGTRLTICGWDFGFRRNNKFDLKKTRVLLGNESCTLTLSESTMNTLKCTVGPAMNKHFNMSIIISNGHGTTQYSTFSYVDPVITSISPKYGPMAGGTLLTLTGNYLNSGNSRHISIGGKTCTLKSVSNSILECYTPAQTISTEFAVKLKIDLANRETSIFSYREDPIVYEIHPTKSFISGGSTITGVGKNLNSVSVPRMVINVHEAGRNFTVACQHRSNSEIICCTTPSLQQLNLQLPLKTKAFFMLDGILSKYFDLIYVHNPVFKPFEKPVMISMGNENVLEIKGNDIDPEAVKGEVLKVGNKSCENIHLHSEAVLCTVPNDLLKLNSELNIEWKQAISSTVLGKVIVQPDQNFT
binder,measurement,setting,value
"Fab VH1-46_IGHD6-6*01_IGHJ1*01 S102A/S103P/S104F/H111F S84G & L6_IGKJ1*01 (Fab, V domains shown, Fab expressed in E. coli: VH joined to CH1 from Plasmid A (with His6 and Flag tags), VL joined to kappa CL from Plasmid C; also called APFF S84G) VH: QVQLVQSGAEVKKPGASVKVSCKASGYTFTSYYMHWVRQAPGQGLEWMGIINPSGGSTSYAQKFQGRVTMTRDTSTSTVYMELGSLRSEDTAVYYCAREEYAPFSAEYFQFWGQGTLVTVSS VL: not shown",ECL signal,[1],131000
same,ECL signal,[2],299
same,ECL signal,[3],435
same,ECL signal,[4],419
same,ECL signal,[5],395
same,ECL signal,[6],429
same,ECL signal,[7],457
same,ECL signal,[8],473
same,ECL signal,[9],434
"Fab VH1-46_IGHD6-6*01_IGHJ1*01 S102A/S103P/S104F/H111F S84H & L6_IGKJ1*01 (Fab, V domains shown, Fab expressed in E. coli: VH joined to CH1 from Plasmid A (with His6 and Flag tags), VL joined to kappa CL from Plasmid C; also called APFF S84H) VH: QVQLVQSGAEVKKPGASVKVSCKASGYTFTSYYMHWVRQAPGQGLEWMGIINPSGGSTSYAQKFQGRVTMTRDTSTSTVYMELHSLRSEDTAVYYCAREEYAPFSAEYFQFWGQGTLVTVSS VL: not shown",ECL signal,[10],138000
same,ECL signal,[11],301
same,ECL signal,[12],306
same,ECL signal,[13],374
same,ECL signal,[14],353
same,ECL signal,[15],318
same,ECL signal,[16],382
same,ECL signal,[17],331
same,ECL signal,[18],319
"Fab VH1-46_IGHD6-6*01_IGHJ1*01 S102A/S103P/S104F/H111F S84Q & L6_IGKJ1*01 (Fab, V domains shown, Fab expressed in E. coli: VH joined to CH1 from Plasmid A (with His6 and Flag tags), VL joined to kappa CL from Plasmid C; also called APFF S84Q) VH: QVQLVQSGAEVKKPGASVKVSCKASGYTFTSYYMHWVRQAPGQGLEWMGIINPSGGSTSYAQKFQGRVTMTRDTSTSTVYMELQSLRSEDTAVYYCAREEYAPFSAEYFQFWGQGTLVTVSS VL: not shown",ECL signal,[19],122000
same,ECL signal,[20],311
same,ECL signal,[21],347
same,ECL signal,[22],255
same,ECL signal,[23],373
same,ECL signal,[24],288
same,ECL signal,[25],372
same,ECL signal,[26],416
same,ECL signal,[27],357
"Fab VH1-46_IGHD6-6*01_IGHJ1*01 S102A/S103P/S104F/H111F S84N & L6_IGKJ1*01 (Fab, V domains shown, Fab expressed in E. coli: VH joined to CH1 from Plasmid A (with His6 and Flag tags), VL joined to kappa CL from Plasmid C; also called APFF S84N) VH: QVQLVQSGAEVKKPGASVKVSCKASGYTFTSYYMHWVRQAPGQGLEWMGIINPSGGSTSYAQKFQGRVTMTRDTSTSTVYMELNSLRSEDTAVYYCAREEYAPFSAEYFQFWGQGTLVTVSS VL: not shown",ECL signal,[28],135000
same,ECL signal,[29],307
same,ECL signal,[30],337
same,ECL signal,[31],375
same,ECL signal,[32],324
same,ECL signal,[33],415
same,ECL signal,[34],251
same,ECL signal,[35],309
same,ECL signal,[36],167

# From patent US20120316071A1 (published 2012)
